Data taken from paper PMC1459065.
Read-outs that look alike come from different tables or passages of the source.

What was measured:
RecA [1] = target: T1, RecA (Escherichia coli, UniProt P0A7G6 1-353); test: double filter binding
RecA [2] = target: T1, RecA; test: double filter binding; remark: listed apart in the source

T1 sequence (P0A7G6 whole entry): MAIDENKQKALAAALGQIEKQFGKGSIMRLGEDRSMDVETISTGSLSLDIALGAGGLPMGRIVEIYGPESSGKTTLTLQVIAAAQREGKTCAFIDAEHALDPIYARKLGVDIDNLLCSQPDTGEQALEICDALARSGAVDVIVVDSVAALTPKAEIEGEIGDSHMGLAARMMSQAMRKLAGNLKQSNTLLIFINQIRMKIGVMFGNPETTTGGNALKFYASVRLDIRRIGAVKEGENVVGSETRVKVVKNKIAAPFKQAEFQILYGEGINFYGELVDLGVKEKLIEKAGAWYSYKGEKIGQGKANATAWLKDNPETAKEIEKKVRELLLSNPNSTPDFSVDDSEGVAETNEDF

Binder: TGGTGGTGGTGGTGGTGGTGGTGGTGGTGGTGGTGGTGGTGGTGGTGG (ssDNA) [TGG-repeating 48mer]
- Kd (RecA [1]): 91 nM

Binder: CCACCACCACCACCACCACCACCACCACCACCACCACCACCACCACCA (ssDNA) [CCA-repeating 48mer]
- Kd (RecA [2]): 246 nM
